# Publication PMC4497498, “Kv1.3 contains an alternative C-terminal ER exit motif and is recruited into COPII vesicles by Sec24a” (BMC Biochemistry, 2015)
# T1: Sec24a^341 (Sec24a lacking the first 341 residues) (human, UniProt O95486 342-1093)
# T1 construct: Sec24a, COPII cargo adaptor subunit, human; ~80 kDa; source: Hi5 insect cells (baculovirus), purified (HisPur Cobalt resin, Superose 6)
# T1 sequence (looked up): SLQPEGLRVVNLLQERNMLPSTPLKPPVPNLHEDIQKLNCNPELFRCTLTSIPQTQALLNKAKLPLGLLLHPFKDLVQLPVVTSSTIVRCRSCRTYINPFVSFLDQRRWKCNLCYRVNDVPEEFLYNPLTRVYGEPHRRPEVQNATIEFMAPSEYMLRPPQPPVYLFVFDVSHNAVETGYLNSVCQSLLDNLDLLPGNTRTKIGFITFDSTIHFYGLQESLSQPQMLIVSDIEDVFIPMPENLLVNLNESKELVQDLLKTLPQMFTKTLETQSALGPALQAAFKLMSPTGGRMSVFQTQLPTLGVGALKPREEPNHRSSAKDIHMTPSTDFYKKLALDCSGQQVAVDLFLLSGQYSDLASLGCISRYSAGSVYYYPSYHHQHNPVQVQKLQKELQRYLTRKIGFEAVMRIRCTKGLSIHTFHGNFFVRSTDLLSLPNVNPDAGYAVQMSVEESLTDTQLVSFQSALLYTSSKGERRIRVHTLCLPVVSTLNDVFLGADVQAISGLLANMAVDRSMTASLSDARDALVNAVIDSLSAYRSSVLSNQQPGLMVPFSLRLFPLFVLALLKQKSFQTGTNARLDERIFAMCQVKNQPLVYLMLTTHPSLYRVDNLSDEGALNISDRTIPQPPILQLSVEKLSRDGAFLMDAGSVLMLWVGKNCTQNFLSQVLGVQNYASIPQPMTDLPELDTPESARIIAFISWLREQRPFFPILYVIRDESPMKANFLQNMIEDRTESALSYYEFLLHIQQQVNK
# What was measured:
# [1] = molecular target: T1, Sec24a^341 (Sec24a lacking the first …); assay: membrane flotation assay; 15 ug Sec24a^341 incubated with 15 ug Kv1.3 proteoliposomes (DOPC:DOPS 95:5) in 25 mM Tris, 150 mM NaCl, 160 mM KOAc, 1 mM MgOAc, pH 7.5, 30 % sucrose, 32 °C for 1 h; overlaid with 25 % and 0 % sucrose, 200,000 g for 1 h at 4 °C; fractions read by Western blot; conditions: both partners purified
# [2] = molecular target: the molecule itself; assay: native gel or EMSA + other: negative stain electron microscopy; purified Kv1.3 in Fos-12 or amphipol A8-35 on a 4-16 % native gel; negative stain EM with 2D class averages of Kv1.3 in A8-35; tetramer
binder,measurement,setting,value
"Kv1.3 (mouse Shaker-type voltage-gated potassium channel subfamily member 3), recombinant, His6-tagged (natural protein, UniProt P16390 1-528, looked up, phosphorylated, sites not stated (non-dephosphorylated tetramers were used for reconstitution), Kv1.3, mouse; wild type cDNA cut from Kv1.3-pcDNA3 at the Nco and Kpn sites and ligated into pFastbac HT; Integral membrane protein; a monomer runs at ~65 kDa; No TEV cleavage of the tag is described; also called Kv1.3 tetramers; Kv1.3 proteoliposomes; source: Hi5 insect cells (baculovirus), purified (cobalt Chelating Sepharose, Superose 6) in Fos-12; reconstituted into DOPC:DOPS proteoliposomes, …) MTVVPGDHLLEPEAAGGGGGDPPQGGCGSGGGGGGCDRYEPLPPALPAAGEQDCCGERVVINISGLRFETQLKTLCQFPETLLGDPKRRMRYFDPLRNEYFFDRNRPSFDAILYYYQSGGRIRRPVNVPIDIFSEEIRFYQLGEEAMEKFREDEGFLREEERPLPRRDFQRQVWLLFEYPESSGPARGIAIVSVLVILISIVIFCLETLPEFRDEKDYPASPSQDVFEAANNSTSGAPSGASSFSDPFFVVETLCIIWFSFELLVRFFACPSKATFSRNIMNLIDIVAIIPYFITLGTELAERQGNGQQAMSLAILRVIRLVRVFRIFKLSRHSKGLQILGQTLKASMRELGLLIFFLFIGVILFSSAVYFAEADDPSSGFNSIPDAFWWAVVTMTTVGYGDMHPVTIGGKIVGSLCAIAGVLTIALPVPVIVSNFNYFYHRETEGEEQAQYMHVGSCQHLSSSAEELRKARSNSTLSKSEYMVIEEGGMNHSAFPQTPFKTGNSTATCTTNNNPNSCVNIKKIFTDV",binding result,[1],binds
same,stoichiometry N,[2],4
